Residue numbers refer to the chain shown, from its start.
B1: CL-34565_GS_CL-33675 (PR-1613183) (bispecific antibody, human IgG1, kappa, L234A L235A)
heavy: EVQLVQSGSELKKPGASVKVSCKASGYTFTDYGMYWVRQAPGQGLEWMGWIDTETGDPTYADDFKGRFVFSLDTSVSTAYLQISSLKAEDTAVYYCARTNYYYRNYMFYFDYWGQGTMVTVSSGGGGSGGGGSEVTLRESGPALVKPTQTLTLTCTFSGFSLSTYGMGVGWIRQPPGKALEWLANIWWDDDKYYNPSLKNRLTISKDTSKNQVVLTMTNMDPVDTATYYCARIESSGPKYSFDYWGQGTMVTVSSASTKGPSVFPLAPSSKSTSGGTAALGCLVKDYFPEPVTVSWNSGALTSGVHTFPAVLQSSGLYSLSSVVTVPSSSLGTQTYICNVNHKPSNTKVDKKVEPKSCDKTHTCPPCPAPEAAGGPSVFLFPPKPKDTLMISRTPEVTCVVVDVSHEDPEVKFNWYVDGVEVHNAKTKPREEQYNSTYRVVSVLTVLHQDWLNGKEYKCKVSNKALPAPIEKTISKAKGQPREPQVYTLPPSREEMTKNQVSLTCLVKGFYPSDIAVEWESNGQPENNYKTTPPVLDSDGSFFLYSKLTVDKSRWQQGNVFSCSVMHEALHNAYTQKSLSLSPGK
light: EIVLTQSPATLSLSPGERATLFCRASQSVSNHMHWYQQKPGQAPRLLIYGASILESGVPARFSGSGSGTDFTLTISSLEPEDFAVYYCQQSWYDPITFGQGTKLEIKGGSGGGGSGGEIVLTQSPGTLSLSPGERATLSCRASSGSIWYSFVSWYQQKPGQAPRLLIYADDQRASGIPDRFSGSGSGTDFTLTISRLEPEDFAVYYCQSYGINIDVVFGGGTKVEIKRTVAAPSVFIFPPSDEQLKSGTASVVCLLNNFYPREAKVQWKVDNALQSGNSQESVTEQDSKDSTYSLSSTLTLSKADYEKHKVYACEVTHQGLSSPVTKSFNRGEC
B2: CL-34565_GS_9E8.4 (PR-1613184) (bispecific antibody, human IgG1, kappa, L234A L235A)
heavy: B1 heavy with S236I, P238T, K239T
light: EIVLTQSPATLSLSPGERATLFCRASQSVSNHMHWYQQKPGQAPRLLIYGASILESGVPARFSGSGSGTDFTLTISSLEPEDFAVYYCQQSWYDPITFGQGTKLEIKGGSGGGGSGGEFVLTQSPGTLSLSPGERATLSCERSSGDIGDSYVSWYQQKPGQAPRLVIYADDQRPSGIPDRFSGSGSGTDFTLTISRLEPEDFAVYYCQSYDINIDIVFGGGTKVEIKRTVAAPSVFIFPPSDEQLKSGTASVVCLLNNFYPREAKVQWKVDNALQSGNSQESVTEQDSKDSTYSLSSTLTLSKADYEKHKVYACEVTHQGLSSPVTKSFNRGEC
B3: 3E2.1_GS_1E3.4 (PR-1613190) (bispecific antibody, human IgG1, kappa, L234A L235A)
heavy: EVQLVQSGAEVKKPGSSVKVSCKASGYTFTESYMYWVKQAPGQGLELIGRIDPEDGSTDYVEKFKNKATLTADKSTSTAYMELSSLRSEDTAVYFCARFGARSYFYPMDAWGQGTTVTVSSGGGGSGGGGSEIQLVQSGSELKKPGASVKVSCKASGYPFTNSGMYWVKQAPGQGLEYMGWINTEAGKPTYADDFKGRFVFSLDTSVSTAYLQISSLKAEDTAVYFCARWGYISDNSYGWFDYWGQGTLVTVSSASTKGPSVFPLAPSSKSTSGGTAALGCLVKDYFPEPVTVSWNSGALTSGVHTFPAVLQSSGLYSLSSVVTVPSSSLGTQTYICNVNHKPSNTKVDKKVEPKSCDKTHTCPPCPAPEAAGGPSVFLFPPKPKDTLMISRTPEVTCVVVDVSHEDPEVKFNWYVDGVEVHNAKTKPREEQYNSTYRVVSVLTVLHQDWLNGKEYKCKVSNKALPAPIEKTISKAKGQPREPQVYTLPPSREEMTKNQVSLTCLVKGFYPSDIAVEWESNGQPENNYKTTPPVLDSDGSFFLYSKLTVDKSRWQQGNVFSCSVMHEALHNAYTQKSLSLSPGK
light: ETVLTQSPATLSLSPGERATLSCRASESVSTLMHWYQQKPGQQPRLLIYGASNLESGVPARFSGSGSGTDFTLTISSLEPEDFAVYFCQQSWNDPWTFGGGTKVEIKGGSGGGGSGGATQLTQSPSSLSASVGDRVTISCRASEGVYSYMHWYQQKPGKQPKLLIYKASNLASGVPSRFSGSGSGTDFTLTISSLQPEDFATYFCHQNWNDPLTFGQGTKLEIKRTVAAPSVFIFPPSDEQLKSGTASVVCLLNNFYPREAKVQWKVDNALQSGNSQESVTEQDSKDSTYSLSSTLTLSKADYEKHKVYACEVTHQGLSSPVTKSFNRGEC
B4: CL-33675_GS_CL-34565 (PR-1613186) (bispecific antibody, human IgG1, kappa, L234A L235A)
heavy: EVTLRESGPALVKPTQTLTLTCTFSGFSLSTYGMGVGWIRQPPGKALEWLANIWWDDDKYYNPSLKNRLTISKDTSKNQVVLTMTNMDPVDTATYYCARIESSGPKYSFDYWGQGTMVTVSSGGGGSGGGGSEVQLVQSGSELKKPGASVKVSCKASGYTFTDYGMYWVRQAPGQGLEWMGWIDTETGDPTYADDFKGRFVFSLDTSVSTAYLQISSLKAEDTAVYYCARTNYYYRNYMFYFDYWGQGTMVTVSSASTKGPSVFPLAPSSKSTSGGTAALGCLVKDYFPEPVTVSWNSGALTSGVHTFPAVLQSSGLYSLSSVVTVPSSSLGTQTYICNVNHKPSNTKVDKKVEPKSCDKTHTCPPCPAPEAAGGPSVFLFPPKPKDTLMISRTPEVTCVVVDVSHEDPEVKFNWYVDGVEVHNAKTKPREEQYNSTYRVVSVLTVLHQDWLNGKEYKCKVSNKALPAPIEKTISKAKGQPREPQVYTLPPSREEMTKNQVSLTCLVKGFYPSDIAVEWESNGQPENNYKTTPPVLDSDGSFFLYSKLTVDKSRWQQGNVFSCSVMHEALHNAYTQKSLSLSPGK
light: EIVLTQSPGTLSLSPGERATLSCRASSGSIWYSFVSWYQQKPGQAPRLLIYADDQRASGIPDRFSGSGSGTDFTLTISRLEPEDFAVYYCQSYGINIDVVFGGGTKVEIKGGSGGGGSGGEIVLTQSPATLSLSPGERATLFCRASQSVSNHMHWYQQKPGQAPRLLIYGASILESGVPARFSGSGSGTDFTLTISSLEPEDFAVYYCQQSWYDPITFGQGTKLEIKRTVAAPSVFIFPPSDEQLKSGTASVVCLLNNFYPREAKVQWKVDNALQSGNSQESVTEQDSKDSTYSLSSTLTLSKADYEKHKVYACEVTHQGLSSPVTKSFNRGEC
B5: 9E8.4_GS_CL-34565 (PR-1613187) (bispecific antibody, human IgG1, kappa, L234A L235A)
heavy: B4 heavy with S103I, P105T, K106T
light: EFVLTQSPGTLSLSPGERATLSCERSSGDIGDSYVSWYQQKPGQAPRLVIYADDQRPSGIPDRFSGSGSGTDFTLTISRLEPEDFAVYYCQSYDINIDIVFGGGTKVEIKGGSGGGGSGGEIVLTQSPATLSLSPGERATLFCRASQSVSNHMHWYQQKPGQAPRLLIYGASILESGVPARFSGSGSGTDFTLTISSLEPEDFAVYYCQQSWYDPITFGQGTKLEIKRTVAAPSVFIFPPSDEQLKSGTASVVCLLNNFYPREAKVQWKVDNALQSGNSQESVTEQDSKDSTYSLSSTLTLSKADYEKHKVYACEVTHQGLSSPVTKSFNRGEC
B6: 3E2.1_GS_CL-34565 (PR-1613189) (bispecific antibody, human IgG1, kappa, L234A L235A)
heavy: EVQLVQSGAEVKKPGSSVKVSCKASGYTFTESYMYWVKQAPGQGLELIGRIDPEDGSTDYVEKFKNKATLTADKSTSTAYMELSSLRSEDTAVYFCARFGARSYFYPMDAWGQGTTVTVSSGGGGSGGGGSEVQLVQSGSELKKPGASVKVSCKASGYTFTDYGMYWVRQAPGQGLEWMGWIDTETGDPTYADDFKGRFVFSLDTSVSTAYLQISSLKAEDTAVYYCARTNYYYRNYMFYFDYWGQGTMVTVSSASTKGPSVFPLAPSSKSTSGGTAALGCLVKDYFPEPVTVSWNSGALTSGVHTFPAVLQSSGLYSLSSVVTVPSSSLGTQTYICNVNHKPSNTKVDKKVEPKSCDKTHTCPPCPAPEAAGGPSVFLFPPKPKDTLMISRTPEVTCVVVDVSHEDPEVKFNWYVDGVEVHNAKTKPREEQYNSTYRVVSVLTVLHQDWLNGKEYKCKVSNKALPAPIEKTISKAKGQPREPQVYTLPPSREEMTKNQVSLTCLVKGFYPSDIAVEWESNGQPENNYKTTPPVLDSDGSFFLYSKLTVDKSRWQQGNVFSCSVMHEALHNAYTQKSLSLSPGK
light: ETVLTQSPATLSLSPGERATLSCRASESVSTLMHWYQQKPGQQPRLLIYGASNLESGVPARFSGSGSGTDFTLTISSLEPEDFAVYFCQQSWNDPWTFGGGTKVEIKGGSGGGGSGGEIVLTQSPATLSLSPGERATLFCRASQSVSNHMHWYQQKPGQAPRLLIYGASILESGVPARFSGSGSGTDFTLTISSLEPEDFAVYYCQQSWYDPITFGQGTKLEIKRTVAAPSVFIFPPSDEQLKSGTASVVCLLNNFYPREAKVQWKVDNALQSGNSQESVTEQDSKDSTYSLSSTLTLSKADYEKHKVYACEVTHQGLSSPVTKSFNRGEC
B7: 9E8.4_GS_4G8.5 (PR-1613188) (bispecific antibody, human IgG1, kappa, L234A L235A)
heavy: EVTLRESGPALVKPTQTLTLTCTFSGFSLSTYGMGVGWIRQPPGKALEWLANIWWDDDKYYNPSLKNRLTISKDTSKNQVVLTMTNMDPVDTATYYCARIESIGTTYSFDYWGQGTMVTVSSGGGGSGGGGSEIQLVQSGSELKKPGASVKVSCKASGYTFTNYGMYWVRQAPGQGLEYMGWINTETGKPTYADDFKGRFVFSLDTSVSTAYLQISSLKAEDTAVYFCARTNYYYRSYIFYFDYWGQGTMVTVSSASTKGPSVFPLAPSSKSTSGGTAALGCLVKDYFPEPVTVSWNSGALTSGVHTFPAVLQSSGLYSLSSVVTVPSSSLGTQTYICNVNHKPSNTKVDKKVEPKSCDKTHTCPPCPAPEAAGGPSVFLFPPKPKDTLMISRTPEVTCVVVDVSHEDPEVKFNWYVDGVEVHNAKTKPREEQYNSTYRVVSVLTVLHQDWLNGKEYKCKVSNKALPAPIEKTISKAKGQPREPQVYTLPPSREEMTKNQVSLTCLVKGFYPSDIAVEWESNGQPENNYKTTPPVLDSDGSFFLYSKLTVDKSRWQQGNVFSCSVMHEALHNAYTQKSLSLSPGK
light: EFVLTQSPGTLSLSPGERATLSCERSSGDIGDSYVSWYQQKPGQAPRLVIYADDQRPSGIPDRFSGSGSGTDFTLTISRLEPEDFAVYYCQSYDINIDIVFGGGTKVEIKGGSGGGGSGGATQLTQSPSLSASVGDRVTITCRASESVSTHMHWYQQKPGKQPKLLIYGASNLESGVPSRFSGSGSGTDFTLTISSLQPEDFATYFCQQSWNDPFTFGQGTKLEIKRTVAAPSVFIFPPSDEQLKSGTASVVCLLNNFYPREAKVQWKVDNALQSGNSQESVTEQDSKDSTYSLSSTLTLSKADYEKHKVYACEVTHQGLSSPVTKSFNRGEC
B8: CL-34565_GS_3E2.1 (PR-1613185) (bispecific antibody, human IgG1, kappa, L234A L235A)
heavy: EVQLVQSGSELKKPGASVKVSCKASGYTFTDYGMYWVRQAPGQGLEWMGWIDTETGDPTYADDFKGRFVFSLDTSVSTAYLQISSLKAEDTAVYYCARTNYYYRNYMFYFDYWGQGTMVTVSSGGGGSGGGGSEVQLVQSGAEVKKPGSSVKVSCKASGYTFTESYMYWVKQAPGQGLELIGRIDPEDGSTDYVEKFKNKATLTADKSTSTAYMELSSLRSEDTAVYFCARFGARSYFYPMDAWGQGTTVTVSSASTKGPSVFPLAPSSKSTSGGTAALGCLVKDYFPEPVTVSWNSGALTSGVHTFPAVLQSSGLYSLSSVVTVPSSSLGTQTYICNVNHKPSNTKVDKKVEPKSCDKTHTCPPCPAPEAAGGPSVFLFPPKPKDTLMISRTPEVTCVVVDVSHEDPEVKFNWYVDGVEVHNAKTKPREEQYNSTYRVVSVLTVLHQDWLNGKEYKCKVSNKALPAPIEKTISKAKGQPREPQVYTLPPSREEMTKNQVSLTCLVKGFYPSDIAVEWESNGQPENNYKTTPPVLDSDGSFFLYSKLTVDKSRWQQGNVFSCSVMHEALHNAYTQKSLSLSPGK
light: EIVLTQSPATLSLSPGERATLFCRASQSVSNHMHWYQQKPGQAPRLLIYGASILESGVPARFSGSGSGTDFTLTISSLEPEDFAVYYCQQSWYDPITFGQGTKLEIKGGSGGGGSGGETVLTQSPATLSLSPGERATLSCRASESVSTLMHWYQQKPGQQPRLLIYGASNLESGVPARFSGSGSGTDFTLTISSLEPEDFAVYFCQQSWNDPWTFGGGTKVEIKRTVAAPSVFIFPPSDEQLKSGTASVVCLLNNFYPREAKVQWKVDNALQSGNSQESVTEQDSKDSTYSLSSTLTLSKADYEKHKVYACEVTHQGLSSPVTKSFNRGEC

Molecular target: recombinant human VEGF165 (human, UniProt P15692 207-395)
Sequence (P15692 other isoform, or with tags, fused parts or gaps limits assumed): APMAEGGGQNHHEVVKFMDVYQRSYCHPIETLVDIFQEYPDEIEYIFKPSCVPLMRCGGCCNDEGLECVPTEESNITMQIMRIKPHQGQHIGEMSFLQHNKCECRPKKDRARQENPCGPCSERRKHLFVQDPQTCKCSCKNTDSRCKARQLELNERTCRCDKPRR
Assay: cell-based or functional assay

| Potency IC50 (nM), HMVEC-d hVEGF165 (proliferation) [nM] | Binder |
| --- | --- |
| 0.059 | B1 |
| 0.065 | B2 |
| 0.709 | B3 |
| 0.05 | B4 |
| 0.058 | B5 |
| 0.063 | B6 |
| 0.354 | B7 |
| 0.053 | B8 |

Molecular target: recombinant human PDGF-BB (human, UniProt P01127 82-190)
Sequence (P01127 82-190 limits assumed): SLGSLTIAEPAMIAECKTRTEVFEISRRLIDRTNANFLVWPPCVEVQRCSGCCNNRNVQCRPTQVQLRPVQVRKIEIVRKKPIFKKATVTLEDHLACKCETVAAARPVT
Assay: cell-based or functional assay

| Potency IC50 (nM), NIH-3T3 hPDGF-BB (proliferation) [nM] | Binder |
| --- | --- |
| 0.052 | B1 |
| 0.323 | B2 |
| 0.896 | B3 |
| 0.043 | B4 |
| 0.134 | B5 |
| 1.16 | B6 |
| 0.108 | B7 |
| 6 | B8 |

From patent US20170015742A1 (published 2017)
